# Tests used:
# [1] = biological target: T1, ABri23 (Homo sapiens, UniProt Q9Y287); experiment: ESI-MS binding of Bri2(90-236) to ABri23
# T1 construct: purchased Bachem (Bubendorf, Switzerland)
# Protocol: (§1) Prior to electrospray ionization mass spectrometry (ESI-MS), purified Bri2(90-236) (SEQ ID NO: 2) was rebuffered into 10 mM ammonium acetate, pH 7.0, using spin columns with a 3 kDa cut-off limit (Nanosep, Pall Corp., East Hills, N.Y., USA). Protein and peptides were mixed at 22° C. directly before analysis at a final protein concentration of 20 μM and a final peptide concentration of 50 μM. Data was acquired using a QTOF Ultima API mass spectrometer (Waters, Milford, Mass., USA) equipped with a Z-spray source operated in the positive-ion mode. Samples were introduced via nano-electrospray using metal-plated borosilicate glass capillary needles (Proxeon, Denmark). The source temperature was 80° C., the capillary voltage 1.7 kV, and the cone and RF lens 1 potentials were 100 and 38 V, respectively. The mass spectrometer was operated in single-reflector mode at a resolution of 10 000 (full width half maximum definition), and the mass scale was calibrated using myoglobin. Scans were acquired at a rate of 1 scan per 2 sec between 500 and 4000 m/z. The collision gas was argon at 5.2×10^−5 mbar. Mass spectra were smoothed using the Waters MassLynx software.
# All peptides, with the exception of KFFEYNGKKFFE (SEQ ID NO: 15), ABri23 (SEQ ID NO: 4) and Aβ1-40 (SEQ ID NO: 11), were purchased from Thermo Electron (Darmstadt, Germany). KFFEYNGKKFFE was purchased from Interactiva (Ulm, Germany) and Aβ1-40 and disulfide-linked ABri23 were from Bachem (Bubendorf, Switzerland).
# Peptides, except for KFFEYNGKKFFE, ABri23 and Aβ1-40, were acetylated at the N-terminus and amidated at the C-terminus. […]
# (§2) ESI-MS binding experiments were conducted to investigate whether Bri2(90-236) can bind the peptides ABri23 and Aβ1-40. For this purpose, Bri2(90-236) was mixed with ABri23, Aβ1-40, or an equimolar mixture of ABri23 and Aβ1-40, to a final concentration of 20 μM Bri2(90-236) and 50 μM of each peptide, and analyzed by ESI-MS. Mass spectra were recorded to investigate the presence and stoichiometry of protein-peptide complexes in the gas phase.
# [2] = biological target: T2, Aβ1-40 (Homo sapiens, UniProt P05067); experiment: ESI-MS binding of Bri2(90-236) to Aβ1-40
# T2 construct: made in house; host or cells: E. coli
# T2 sequence (P05067 672-711): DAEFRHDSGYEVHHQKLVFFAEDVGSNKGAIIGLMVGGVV
# Protocol: as §1, with “The mass spectrometer was operated in single-reflector mode at a resolution of 10 000 (full width half maximum definition), and the mass scale was calibrated using myoglobin. Scans were acquired at a rate of 1 scan per 2 sec between 500 and 4000 m/z. The collision gas was argon at 5.2×10^−5 mbar. Mass spectra were smoothed using the Waters MassLynx software.” left out
# as §2
molecule,measurement,setting,value
"Bri2(90-236): recombinant protein of residues 90-236 of human Bri2 (SEQ ID NO: 2), encompassing the Brichos domain, expressed in E. coli (protein, listed as Homo sapiens) GIKYIKDDVILNEPSADAPAALYQTIEENIKIFEEEEVEFISVPVPEFADSDPANIVHDFNKKLTAYLDLNLDKCYVIPLNTSIVMPPRNLLELLINIKAGTYLPQSYLIHEHMVITDRIENIDHLGFFIYRLCHDKETYKLQRRET",Bri2(90-236)/ABri23 complex in competition experiment,"[1]; 20 μM Bri2(90-236) with 50 μM Aβ1-40 and 50 μM ABri23 (equimolar), ESI-MS",nearly all detectable recombinant Bri2(90-236) is complexed with ABri23
same,saturation of Bri2(90-236) with ABri23 (complex formation),"[1]; 20 μM Bri2(90-236), 50 μM oxidized ABri23 (2.5-fold molar excess), ESI-MS conditions",near-complete saturation
same,binding preference ABri23 versus Aβ1-40,"[1]; competition, both peptides at equimolar amounts, ESI-MS",preferentially binds ABri23
same,Bri2(90-236)/Aβ1-40 complex in competition experiment,[2]; 20 μM Bri2(90-236) with 50 μM Aβ1-40 and 50 μM ABri23 (equimolar),only minor signals
same,amount of Bri2(90-236)/Aβ1-40 complexes observed,"[2]; 20 μM Bri2(90-236), 50 μM freshly dissolved Aβ1-40 (2.5 fold excess)",Only small amounts

# Source: US8785391B2, “Compound and method for treatment of alzheimer's disease and familial dementia” (Alphabeta AB, priority 2010, dated 2014)
